The values below come from the supplement of paper PMC12042874.

± gives the uncertainty stated by the source.

The series in a line: amyloid nucleation score (Sup35N fusion, yeast selection) (log enrichment); library NNK1; higher = more nucleation; inactive = no reads after selection. In a few lines: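 After 24 hours of induction with 100 μM copper sulfate, psi-negative yeast expressing peptides of 20 random codons fused to Sup35N were grown for 7 days at 30°C on medium lacking adenine and uracil. Input and output plasmid inserts were sequenced with Illumina, and sequences with under 100 input reads were discarded. Scores for nucleation are the DiMSum log enrichment of output over input reads, centred on the mode score of non-aggregating sequences.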
GTLDDTGVTDDNFI: the amyloid nucleation score stood at 1.19 ± 0.4.
For GTLHSKCRGICLDCVAIVIL the value was -0.092 ± 0.39; for GVDMRYFGPYAGYADYSKSR, -0.846 ± 0.44; for GVDRVRQCRARALDFSIGS, -0.372 ± 0.62.
GVFVKGWYWKWGMGDELQAA had an amyloid nucleation score of 0.182 ± 0.79.
Under GVGVCYFSC stands 2.2 ± 0.22.
Substance GVKQEHVIPWQEVLGVITL came in with an amyloid nucleation score of 1.01 ± 0.84.
For GVKTAYGNHAMWRDAVSRRG the value was 0.15 ± 0.57; for GVMPWLR, -0.123 ± 0.99.
For GVTHKDMSNDYFMGD the value was -0.285 ± 0.47.
Under GVVITSPWGA stands 1.18 ± 0.85; under GVVSFNFDSLQF, -0.471 ± 0.65; under GWIRPVAKSRLWSFSPMEMI, -0.768 ± 0.62.
For GWKVCN, the amyloid nucleation score is 0.362 ± 1.4.
For GWLTYSPRSALIDHERRSLQ, the amyloid nucleation score was determined as 0.879 ± 0.15.
Turning to GWQRSRVAVAPVVVTQSCGV, the amyloid nucleation score is -0.671 ± 1.6.
Substance GWSNSFA gave an amyloid nucleation score of 0.123 ± 0.44.
As for GWVMLTCIRNAGVNLRPGSR, the amyloid nucleation score was 1.58 ± 0.53.
For GWYEMASAHHMTDWYGW the value was -0.337 ± 0.51.
Under GYGQCSGSYAGSGGT stands 0.715 ± 0.57.
For GYMSRVTLVVCTMMIRRNGD the value was 0.906 ± 0.24.
For the substance GYSYFPNYHVFRVHE, the amyloid nucleation score came out at 1.27 ± 0.54.
For GYTRGDDSGAVHSLSWVFAG the value was -0.361 ± 1.7.
Regarding HAIGTQMVTLGLRSISFSWN, the amyloid nucleation score turned out to be 1.19 ± 0.67.
HAVSDFIPG yielded an amyloid nucleation score of 0.69 ± 0.41.
For HCGGNSRSVN the value was -1.11 ± 0.83; for HCRFWRTFDGSNGRNIENSD, 0.986 ± 1.1.
As to HCYGIVEFSSSCCEFFRHGV, the amyloid nucleation score amounted to 6.36 ± 0.092.
As for HCYHGRGADR, the amyloid nucleation score was 0.181 ± 0.74.
Turning to HDKYTLIGPRH, the amyloid nucleation score is -1.27 ± 1.2.
For HDTDAKVQILNA the value was 0.626 ± 0.69; for HEGMLPIDVLRHSRPRQPFV, -0.686 ± 0.83.
In turn, HEKDWLTSVCFISELSTFNN gave an amyloid nucleation score of 0.709 ± 0.65.
With HESGRRAIYS, the amyloid nucleation score was -0.019 ± 0.29.
For HFAGCNSIDLQCNIRCKNIR the value was 5.469 ± 0.048.
Under HFGDGILLI stands -1.21 ± 1.7; under HFRVSDKDL, 1.2 ± 0.38; under HFTCRTLITGSYSVTTLNVS, 5.23 ± 0.061.
For HFYSGECVFRGACRYQRRGH the value was 0.402 ± 1.4.
HGAVLCC: the amyloid nucleation score was 0.305 ± 1.4.
As to HGKFRHLSCTASSNEVEGNN, the amyloid nucleation score amounted to 1.17 ± 0.58.
HGNCWSPTRAVRQYGVNAPM returned an amyloid nucleation score of 0.81 ± 0.36.
In the case of HHHLNYTINIRQSYFVMCGG, the amyloid nucleation score turned out to be 5 ± 0.071.
For HHLAKCRTLKLYLLWLQRIL the value was 0.471 ± 0.54; for HHVWGFRSMLDSLHRSDCIQ, -0.989 ± 2.7.
For the substance HIAHTEPGAIWV, the amyloid nucleation score entry is “inactive”.
Consider HIENNSLKSDIVGRRGVRLS, for which the amyloid nucleation score is -0.549 ± 0.64.
In the case of HIIQNLV, the amyloid nucleation score came to 0.25 ± 0.77.
As to HIKVHKFVGENWETFSRADM, the amyloid nucleation score was -0.026 ± 1.7.
HIRCHVRTGEAARHRQVAQY registered an amyloid nucleation score of 0.136 ± 0.39.
Under HLGTTNMNVFNVG stands 1.79 ± 0.082; under HLILRTLWYKYLREKFSE, -0.286 ± 0.3.
HLINVQ returned an amyloid nucleation score of 0.632 ± 0.53.
Under HLPTKFLGVPNKLAYSTAPV stands -0.401 ± 0.42; under HLRRVMYLFAANCGPRPAND, -0.69 ± 0.96.
With HLSLPNVPVALWKRSRPVTM, the amyloid nucleation score was 1.26 ± 0.85.
For the substance HLSMFDCVYSF, the amyloid nucleation score was 1.26 ± 0.9.
Take HLWFE: the amyloid nucleation score is -0.146 ± 0.43.
Take HLYLFSGFRAVSESEVRGAK: the amyloid nucleation score was determined as 2.6 ± 0.22.
HMGVRMNHFFTSDLSVVMWF had an amyloid nucleation score of 3.59 ± 0.12.
In turn, HMLASNSRWNTAKGINWGFH returned an amyloid nucleation score of 0.758 ± 0.7.
With HMRYWLLQYGVILAQG, the amyloid nucleation score was 0.71 ± 0.42.
Regarding HNFEFFMGQGMIFWCRLTEN, the amyloid nucleation score amounted to 1.24 ± 0.56.
For HNGRVFVMRWLYGVLGECG the value was -1.31 ± 1.1; for HNLYMWVFCCCQYRMNFSWS, 3.49 ± 0.11; for HNQDSCIFGQYSDNEVNASV, -1.47 ± 1.6.
For HNSLWGYFFMF the value was 3.19 ± 0.12.
In turn, HNVLRSHTSRYRYVM had an amyloid nucleation score of 0.226 ± 0.7.
As to HPALKWLCPGIERLCLAWSG, the amyloid nucleation score turned out to be 0.818 ± 0.61.
Under HQFSVHIPCCYSVPGNLYGW stands 0.888 ± 0.73.
In the case of HRGTDLSLRSWVDWLHTLRG, the amyloid nucleation score worked out at 0.67 ± 0.57.
Under HRMGPQVKHIHNIGESKQSE stands 0.822 ± 0.88; under HSCYLANCLSRVQGSKRDTE, -0.911 ± 0.54.
Substance HSFSFCCSSYSCNLVGIELN came in with an amyloid nucleation score of 7.599 ± 0.043.
With HSGNTLIQMCVI, the amyloid nucleation score was -0.083 ± 0.61.
Substance HSHRVIS yielded an amyloid nucleation score of 0.828 ± 0.51.
Substance HSKGYMARHDRAYGDSERVV had an amyloid nucleation score of 0.303 ± 0.77.
HSNMVNS: the amyloid nucleation score is -0.73 ± 0.33.
Take HSSAEIMPGHISGTWGLCDK: the amyloid nucleation score was -0.62 ± 0.87.
For HSSSSHGEKCGYVGNSHPSS the value was 0.691 ± 0.92; for HSSWEYSSYGVPSNMEKDWV, “inactive”.
Under HSVFVMVCSSCMVG stands 8.892 ± 0.068; under HSYYGHPHTCFAMKEEVHVR, 0.035 ± 0.77; under HTCGIDGLNKRMT, -0.791 ± 1.6.
Under HTEYRKYRVCTFLK stands 0.826 ± 0.4; under HTLDSISGSCGPLIAIVDFQ, “inactive”; under HTPLNRC, -0.469 ± 1.4.
Turning to HTVNLAPRNPDPPS, the amyloid nucleation score stood at 0.259 ± 0.77.
As to HVGRHTTTGHAGFCNCGNPN, the amyloid nucleation score is 3.46 ± 0.17.
For HVHWPLLNNAYAS the value was 0.867 ± 0.93; for HVLKGGRAAFVELRGKSHGL, -0.081 ± 0.96; for HVQLELTSCKEGGGCRS, 0.379 ± 0.78.
Substance HVSLVHLRYCRICSLLSMWG returned an amyloid nucleation score of 2.77 ± 0.12.
With HVWRDGSE, the amyloid nucleation score is 1.82 ± 0.54.
Under HVYSSVLCQQD stands 0.717 ± 0.65.
Under HWCYVLNS stands “inactive”; under HWLGYVVLDLFDWPYCMIDL, 1.38 ± 0.5; under HWPGLVEYGLGWLRGRLVMG, 0.139 ± 0.6.
HYGSWLCELDVVLYCDCSVM yielded an amyloid nucleation score of 0.021 ± 0.62.
In the case of HYHFDTACVWCDYSVHGNKD, the amyloid nucleation score turned out to be 7.38 ± 0.057.
For HYLCPVACRGRFVVSQPVNI the value was -1.14 ± 1.5; for HYMMADLGFWQYP, 0.138 ± 0.94; for HYTLCCKFFNQHVGHAMQNE, 1.87 ± 0.51.
For HYVKVRFRNRSVVYALIGGV the value was 0.752 ± 0.54.
